Assay results published in PMC7498356.

Tests used:
[1] = biological target: T1, TDRD5 LOTUS domain 2 (L2) (Mus musculus, UniProt Q5VCS6 122-197); assay: pull-down
T1 sequence: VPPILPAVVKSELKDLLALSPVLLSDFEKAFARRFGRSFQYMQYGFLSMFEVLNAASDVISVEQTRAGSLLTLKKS

[2] = biological target: T2, TDRD5 LOTUS domain 1 (L1) (Mus musculus, UniProt Q5VCS6 7-80); assay: pull-down
T2 sequence: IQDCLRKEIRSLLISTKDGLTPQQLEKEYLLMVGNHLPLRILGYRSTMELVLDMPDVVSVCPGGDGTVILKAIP

[3] = biological target: T3, TDRD5 LOTUS domain 3 (L3) (Mus musculus, UniProt Q5VCS6 291-365); assay: pull-down
T3 sequence: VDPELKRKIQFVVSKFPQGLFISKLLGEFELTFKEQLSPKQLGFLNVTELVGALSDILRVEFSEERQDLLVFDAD

Tejas LOTUS = biological target: T4, Tejas LOTUS (Drosophila, UniProt A1Z9P1 6-79); assay: ELISA
T4 sequence: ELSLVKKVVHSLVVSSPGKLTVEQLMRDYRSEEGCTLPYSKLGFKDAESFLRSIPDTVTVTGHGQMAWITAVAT

human TDRD5 L1 = biological target: T5, human TDRD5 L1 (Homo sapiens, UniProt Q8NAT2 7-80); assay: ELISA
T5 sequence: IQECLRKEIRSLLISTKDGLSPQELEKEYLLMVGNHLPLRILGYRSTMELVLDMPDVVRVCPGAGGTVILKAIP

human TDRD7 L1 = human TDRD7 L1 (Homo sapiens, UniProt Q8NHU6 3-76); assay: ELISA
human TDRD7 L1, sequence (Q8NHU6 3-76): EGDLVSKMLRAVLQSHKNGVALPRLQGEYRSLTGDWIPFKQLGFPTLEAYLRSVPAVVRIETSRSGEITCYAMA

TDRD7 L1 = biological target: T6, TDRD7 L1 (Mus musculus, UniProt Q8K1H1 3-76); assay: ELISA
T6 sequence: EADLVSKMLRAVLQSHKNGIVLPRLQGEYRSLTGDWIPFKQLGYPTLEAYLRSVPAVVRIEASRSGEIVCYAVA

TDRD7 L3 = biological target: T7, TDRD7 L3 (Mus musculus, UniProt Q8K1H1 325-394); assay: ELISA
T7 sequence: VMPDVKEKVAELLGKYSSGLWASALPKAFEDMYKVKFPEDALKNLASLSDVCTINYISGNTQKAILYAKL

human MARF1 L1 = biological target: T8, human MARF1 L1 (Homo sapiens, UniProt Q9Y4F3 875-949); assay: ELISA
T8 sequence: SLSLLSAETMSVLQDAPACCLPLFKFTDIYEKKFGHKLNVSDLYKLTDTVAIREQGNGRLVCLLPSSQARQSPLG

AT3G52980-LOTUS = biological target: T9, AT3G52980-LOTUS (plant, UniProt Q9LF94 199-282); assay: ELISA
T9 sequence: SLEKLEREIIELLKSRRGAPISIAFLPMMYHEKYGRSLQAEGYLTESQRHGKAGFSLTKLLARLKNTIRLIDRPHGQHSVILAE

TP0894-LOTUS = biological target: T10, TP0894-LOTUS (Treponema pallidum subsp. pallidum str. …, UniProt O83864 178-253); assay: ELISA
T10 sequence: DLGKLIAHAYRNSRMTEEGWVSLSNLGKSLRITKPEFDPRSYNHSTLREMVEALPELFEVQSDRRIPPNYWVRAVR

human MARF1 L7 = biological target: T11, human MARF1 L7 (Homo sapiens, UniProt Q9Y4F3 1411-1485); assay: ELISA
T11 sequence: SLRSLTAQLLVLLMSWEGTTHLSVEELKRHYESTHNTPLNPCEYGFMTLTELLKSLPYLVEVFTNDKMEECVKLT

Oskar LOTUS (eLOTUS) = biological target: T12, Oskar LOTUS (eLOTUS) (Drosophila, UniProt P25158 139-241); assay: ELISA
T12 sequence: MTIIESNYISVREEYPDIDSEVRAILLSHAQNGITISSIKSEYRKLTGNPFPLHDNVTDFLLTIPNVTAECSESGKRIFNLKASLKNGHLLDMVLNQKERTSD

TDRD7 L2 = biological target: T13, TDRD7 L2 (Mus musculus, UniProt Q8K1H1 222-291); assay: ELISA
T13 sequence: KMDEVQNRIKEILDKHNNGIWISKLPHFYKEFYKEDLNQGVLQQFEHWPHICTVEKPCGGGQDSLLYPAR

[4] = biological target: T3, TDRD5 LOTUS domain 3 (L3); assay: pull-down, ELISA
[5] = biological target: T1, TDRD5 LOTUS domain 2 (L2); assay: pull-down, ELISA
[6] = biological target: T2, TDRD5 LOTUS domain 1 (L1); assay: pull-down, ELISA

Binder: CACACACACACACACACACACACACACACA (ssRNA) [Poly(CA)]
- binding result [1]: no binding
- binding result [2]: no binding
- binding result [3]: no binding

Binder: GGUCCGCAGCCGAGUCCGGGUCCG (ssRNA) [Cluster G4-1 mut RNA]
- binding result [1]: no binding
- binding result [2]: no binding
- binding result [3]: no binding
- binding result (Tejas LOTUS): no binding
- binding result (human TDRD5 L1): no binding
- binding result (human TDRD7 L1): no binding
- binding result (TDRD7 L1): no binding
- binding result (TDRD7 L3): no binding
- binding result (human MARF1 L1): no binding
- binding result (AT3G52980-LOTUS): no binding
- binding result (TP0894-LOTUS): no binding
- binding result (human MARF1 L7): no binding
- binding result (Oskar LOTUS (eLOTUS)): no binding
- binding result (TDRD7 L2): no binding

Binder: AGGACCGAAGCCGAGCCGAGCC (ssRNA) [Cluster G4-2 mut RNA]
- binding result [1]: no binding
- binding result [2]: no binding
- binding result [3]: no binding

Binder: AGGAGGGAAGGGGAGGGGAGGG (structured_RNA) [Cluster G4-2 RNA]
- binding result [4]: no binding

Binder: CUCUCUCUCUCUCUCUCUCUCUCUCUCUCU (ssRNA) [Poly(CU)]
- binding result [1]: no binding
- binding result [2]: no binding
- binding result [3]: no binding

Binder: AAAAAAAAAAAAAAAAAAA (ssRNA) [Poly(A)]
- binding result [5]: no binding
- binding result [6]: no binding
- binding result [4]: no binding

Binder: UUUUUUUUUUUUUUUUUUU (ssRNA) [Poly(U)]
- binding result [5]: no binding
- binding result [6]: no binding
- binding result [4]: no binding

Binder: UUACCGUUACCGUUACCGUUACCG (ssRNA) [TERRA G4 mut RNA]
- binding result [1]: no binding
- binding result [2]: no binding
- binding result [3]: no binding
- binding result (Tejas LOTUS): no binding
- binding result (human TDRD5 L1): no binding
- binding result (human TDRD7 L1): no binding
- binding result (TDRD7 L1): no binding
- binding result (TDRD7 L3): no binding
- binding result (human MARF1 L1): no binding
- binding result (AT3G52980-LOTUS): no binding
- binding result (TP0894-LOTUS): no binding
- binding result (human MARF1 L7): no binding
- binding result (Oskar LOTUS (eLOTUS)): no binding
- binding result (TDRD7 L2): no binding

Binder: GUGUGUGUGUGUGUGUGUGUGUGUGUGUGU (ssRNA) [Poly(GU)]
- binding result [3]: no binding

Binder: UUAGGGUUAGGGUUAGGGUUAGGG (structured_RNA) [TERRA G4 RNA]
- binding result [4]: no binding
- binding result (Tejas LOTUS): binds
- binding result (human TDRD5 L1): binds
- binding result (human TDRD7 L1): binds
- binding result (TDRD7 L1): binds
- binding result (TDRD7 L3): binds
- binding result (human MARF1 L1): binds
- binding result (AT3G52980-LOTUS): binds
- binding result (TP0894-LOTUS): binds
- binding result (human MARF1 L7): binds
- binding result (Oskar LOTUS (eLOTUS)): binds
- binding result (TDRD7 L2): binds

Binder: GAGAGAGAGAGAGAGAGAGAGAGAGAGAGA (ssRNA) [Poly(GA)]
- binding result [3]: no binding
